Legend:
[1] = target: T1, GRPR (GRP receptor) (UniProt P30550 1-384, limits assumed); assay: confocal immunofluorescence with a CD2 antibody and Alexa Fluor 488 on GRPR-high PC-3 and DU145 cells at 37 °C; GRPR-low H441 cells as control
T1 construct: whole, on cells; also called gastrin release peptide receptor
Procedure: (§1) In the second day, fresh medium was changed. Contrast agents were incubated with cells at different time point at 37° C. […] After cells were rinsed in PBS for three times, 0.2% Triton X-100 was added to permeablize cells for 10 minutes. […] After three time washes, CD2 antibody was used as primary antibody.

[2] = target: T2, HER2 (human, UniProt P04626 23-1255); assay: immunofluorescence staining of AU565 cells (HER2 high) with PAbPGCA1
T2 construct: whole, on cells; also called cell surface HER2
From the text: We used two cancer cell lines for the binding analyses. AU565 is derived from breast carcinoma. EMT6 is a mouse mammary tumor cell line. AU565 cells express very high levels of HER2. The EMT is regarded as a HER2 negative cell line.

[3] = target: T1, GRPR (GRP receptor); assay: confocal immunofluorescence with a CD2 antibody and Alexa Fluor 488 on GRPR-high PC-3 and DU145 cells; CA1-CD2 without the bombesin sequence as control
Procedure: as §1

T1 sequence (P30550 whole entry): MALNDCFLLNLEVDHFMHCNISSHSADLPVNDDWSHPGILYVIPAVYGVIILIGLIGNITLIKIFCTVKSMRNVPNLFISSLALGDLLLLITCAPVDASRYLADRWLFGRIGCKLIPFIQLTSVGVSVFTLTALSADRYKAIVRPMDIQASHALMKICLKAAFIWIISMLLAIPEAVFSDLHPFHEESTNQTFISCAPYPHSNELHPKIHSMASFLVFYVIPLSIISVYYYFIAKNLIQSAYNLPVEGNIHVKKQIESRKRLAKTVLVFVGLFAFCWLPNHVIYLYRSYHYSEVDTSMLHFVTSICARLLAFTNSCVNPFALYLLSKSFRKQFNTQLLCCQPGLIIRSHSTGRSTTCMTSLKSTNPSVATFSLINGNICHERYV

Binder | binding result [1] | binding result [2] | binding result [3]
CA1.CD2-52I-Bom (designed binder, also called CA1.Bom) RDSGTVWGALGHGIELNIPNFQMTDDIDEVRWERGSTLVAEFKRKMKPFLKSGGSGGGNQWAVGHLMGGSGGGAFEIDANGDLDIKNLTRDDSGTYNVTVYSTNGTRILNKALDLRILE | binds | – | –
CA1.CD2 (designed binder, domain: domain 1; 12 kDa, expressed in E. coli; in most assays loaded with Gd3+; also called Gd-CA1.CD2) RDSGTVWGALGHGIELNIPNFQMTDDIDEVRWERGSTLVAEFKRKMKPFLKSGAFEIDANGDLDIKNLTRDDSGTYNVTVYSTNGTRILNKALDLRILE | – | no binding | no binding
